Assay results reported in US20120121587A1 (Chugai, published 2012).

T1: Human recombinant AXL-FND1 (GST-FND1), from pET-41b(+) (human, UniProt P30530 225-331)
T1 construct: Expressed in E. coli, purified on Glutathione Sepharose; analyte in all Biacore measurements; GST put first by the usual layout of pET-41; not shown: GST-tag of vector pET-41b(+) (Novagen)
T1 sequence (looked up): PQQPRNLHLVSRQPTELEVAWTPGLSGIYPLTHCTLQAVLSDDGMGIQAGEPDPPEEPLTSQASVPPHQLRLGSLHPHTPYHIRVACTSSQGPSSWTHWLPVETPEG

B1: H32/L10 (antibody, human IgG1, kappa)
heavy: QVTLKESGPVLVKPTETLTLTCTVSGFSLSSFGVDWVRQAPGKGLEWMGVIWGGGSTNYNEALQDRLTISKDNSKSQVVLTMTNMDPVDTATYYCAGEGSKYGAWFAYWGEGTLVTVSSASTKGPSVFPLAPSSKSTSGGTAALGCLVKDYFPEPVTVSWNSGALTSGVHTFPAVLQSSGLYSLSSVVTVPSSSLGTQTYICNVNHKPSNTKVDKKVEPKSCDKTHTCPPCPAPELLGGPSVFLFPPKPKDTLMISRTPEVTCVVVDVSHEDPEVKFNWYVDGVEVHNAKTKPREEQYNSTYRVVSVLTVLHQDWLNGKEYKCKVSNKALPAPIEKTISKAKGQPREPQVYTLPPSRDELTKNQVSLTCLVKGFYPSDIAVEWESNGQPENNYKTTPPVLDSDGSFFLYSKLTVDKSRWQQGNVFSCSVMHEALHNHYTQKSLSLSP
light: DVVMTQSPLSLPVTLGQPASISCRSSQNIVHTNGNTYLEWYQQKPGKAPELLIYKVSNRFSGVPDRFSGSGSGTDFTLKISRVEAEDVGVYYCFQGSHIPFTFGQGTKVEIERTVAAPSVFIFPPSDEQLKSGTASVVCLLNNFYPREAKVQWKVDNALQSGNSQESVTEQDSKDSTYSLSSTLTLSKADYEKHKVYACEVTHQGLSSPVTKSFNRGEC
B2: H36/L0 (antibody, human IgG1, kappa)
heavy: not shown
light: DVVMTQSPLSLPVTLGQPASISCRSSQNIVHTNGNTYLEWYQQKPGKAPELLIYKVSNRFSGVPDRFSGSGSGTDFTLKISRVEAEDVGVYYCFQGSHIPFTFGQGTKLEIKRTVAAPSVFIFPPSDEQLKSGTASVVCLLNNFYPREAKVQWKVDNALQSGNSQESVTEQDSKDSTYSLSSTLTLSKADYEKHKVYACEVTHQGLSSPVTKSFNRGEC
B3: H32/L12 (antibody, human IgG1, kappa)
heavy: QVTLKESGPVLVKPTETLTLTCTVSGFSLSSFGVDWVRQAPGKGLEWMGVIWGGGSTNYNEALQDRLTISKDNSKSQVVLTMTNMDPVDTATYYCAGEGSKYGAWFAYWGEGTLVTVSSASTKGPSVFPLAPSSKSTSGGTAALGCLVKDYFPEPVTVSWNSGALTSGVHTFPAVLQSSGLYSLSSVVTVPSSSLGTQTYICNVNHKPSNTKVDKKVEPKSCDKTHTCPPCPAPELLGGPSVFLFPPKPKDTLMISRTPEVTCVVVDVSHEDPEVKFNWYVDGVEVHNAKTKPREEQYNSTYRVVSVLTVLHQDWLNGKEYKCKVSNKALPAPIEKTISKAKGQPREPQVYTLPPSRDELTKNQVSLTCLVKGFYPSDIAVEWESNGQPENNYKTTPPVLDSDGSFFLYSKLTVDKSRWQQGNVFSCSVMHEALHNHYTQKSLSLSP
light: DVVMTQSPLSLPVTLGQPASISCQSSQNIVHTNGNTYLEWYQQKPGEAPELLIYKVSNRFSGVPDRFSGSGSGTDFTLKISRVEAEDVGVYYCFQGSHIPFTFGQGTKVEIERTVAAPSVFIFPPSDEQLKSGTASVVCLLNNFYPREAKVQWKVDNALQSGNSQESVTEQDSKDSTYSLSSTLTLSKADYEKHKVYACEVTHQGLSSPVTKSFNRGEC
B4: H36/L34 (antibody, human IgG1, kappa)
heavy: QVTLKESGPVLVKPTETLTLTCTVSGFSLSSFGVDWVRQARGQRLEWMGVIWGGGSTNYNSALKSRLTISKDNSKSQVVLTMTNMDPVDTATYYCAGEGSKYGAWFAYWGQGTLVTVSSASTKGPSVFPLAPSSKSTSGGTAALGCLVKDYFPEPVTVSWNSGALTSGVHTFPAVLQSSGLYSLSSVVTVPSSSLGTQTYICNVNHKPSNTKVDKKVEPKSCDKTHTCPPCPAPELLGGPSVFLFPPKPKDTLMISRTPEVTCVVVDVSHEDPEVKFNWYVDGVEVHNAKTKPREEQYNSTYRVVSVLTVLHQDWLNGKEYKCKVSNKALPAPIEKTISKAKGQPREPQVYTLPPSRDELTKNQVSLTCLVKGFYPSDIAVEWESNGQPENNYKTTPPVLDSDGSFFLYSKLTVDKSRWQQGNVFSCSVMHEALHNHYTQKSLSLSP
light: DVVMTQSPLSLPVTLGRPASISCRSSRNIVHTNGNTYLEWYQQKPGKAPKLLIYKVSNRFSGVPDRFSGSGSGTDFTLKISRVEAEDVGVYYCFQGSHIPFTFGQGTKLEIKRTVAAPSVFIFPPSDEQLKSGTASVVCLLNNFYPREAKVQWKVDNALQSGNSQESVTEQDSKDSTYSLSSTLTLSKADYEKHKVYACEVTHQGLSSPVTKSFNRGEC
B5: H36/L35 (antibody, human IgG1, kappa)
heavy: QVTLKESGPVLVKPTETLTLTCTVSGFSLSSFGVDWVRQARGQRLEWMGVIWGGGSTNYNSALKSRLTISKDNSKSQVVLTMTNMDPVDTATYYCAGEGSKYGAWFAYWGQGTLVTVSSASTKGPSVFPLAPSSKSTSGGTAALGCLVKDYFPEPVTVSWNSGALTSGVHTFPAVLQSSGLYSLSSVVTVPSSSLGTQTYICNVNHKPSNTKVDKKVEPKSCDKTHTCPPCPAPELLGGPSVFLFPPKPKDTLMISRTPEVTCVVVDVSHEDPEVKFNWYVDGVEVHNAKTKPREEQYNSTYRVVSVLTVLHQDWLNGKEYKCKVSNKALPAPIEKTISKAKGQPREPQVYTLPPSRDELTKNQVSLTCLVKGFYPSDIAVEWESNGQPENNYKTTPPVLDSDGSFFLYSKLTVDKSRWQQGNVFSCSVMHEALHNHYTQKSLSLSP
light: DVVMTQSPLSLPVTLGQPASISCRSSRNIVHTNGNTYLEWYQQKPGKAPKLLIYKVSNRFSGVPDRFSGSGSGTDFTLKISRVEAEDVGVYYCFQGSHIPFTFGRGTKLEIKRTVAAPSVFIFPPSDEQLKSGTASVVCLLNNFYPREAKVQWKVDNALQSGNSQESVTEQDSKDSTYSLSSTLTLSKADYEKHKVYACEVTHQGLSSPVTKSFNRGEC
B6: H33/L11 (antibody, human IgG1, kappa)
heavy: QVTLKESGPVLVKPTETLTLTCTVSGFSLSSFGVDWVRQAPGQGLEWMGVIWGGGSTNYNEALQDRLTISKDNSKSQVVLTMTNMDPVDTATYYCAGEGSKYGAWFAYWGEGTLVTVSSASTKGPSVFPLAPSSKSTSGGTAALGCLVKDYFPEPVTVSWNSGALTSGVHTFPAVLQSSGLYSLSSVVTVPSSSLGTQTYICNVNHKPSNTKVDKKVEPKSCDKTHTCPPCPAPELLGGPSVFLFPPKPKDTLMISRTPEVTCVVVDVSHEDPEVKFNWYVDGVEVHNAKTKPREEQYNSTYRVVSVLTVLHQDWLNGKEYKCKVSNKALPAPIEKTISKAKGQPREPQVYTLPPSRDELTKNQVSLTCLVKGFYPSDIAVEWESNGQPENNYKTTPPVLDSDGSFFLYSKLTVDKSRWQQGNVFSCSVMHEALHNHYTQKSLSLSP
light: DVVMTQSPLSLPVTLGQPASISCQSSQNIVHTNGNTYLEWYQQKPGKAPELLIYKVSNRFSGVPDRFSGSGSGTDFTLKISRVEAEDVGVYYCFQGSHIPFTFGQGTKVEIERTVAAPSVFIFPPSDEQLKSGTASVVCLLNNFYPREAKVQWKVDNALQSGNSQESVTEQDSKDSTYSLSSTLTLSKADYEKHKVYACEVTHQGLSSPVTKSFNRGEC
B7: H35/L0 (antibody, human IgG1, kappa, V domains shown)
VH: QVTLKESGPVLVKPTETLTLTCTVSGFSLSRFGVDWVRQAPGKGLEWMGVIWGGGSTNYNSALKSRLTISKDNSKSQVVLTMTNMDPVDTATYYCAGEGSKYGAWFAYWGQGTLVTVSS
VL: DVVMTQSPLSLPVTLGQPASISCRSSQNIVHTNGNTYLEWYQQKPGKAPELLIYKVSNRFSGVPDRFSGSGSGTDFTLKISRVEAEDVGVYYCFQGSHIPFTFGQGTKLEIKR
B8: H32/L13 (antibody, human IgG1, kappa)
heavy: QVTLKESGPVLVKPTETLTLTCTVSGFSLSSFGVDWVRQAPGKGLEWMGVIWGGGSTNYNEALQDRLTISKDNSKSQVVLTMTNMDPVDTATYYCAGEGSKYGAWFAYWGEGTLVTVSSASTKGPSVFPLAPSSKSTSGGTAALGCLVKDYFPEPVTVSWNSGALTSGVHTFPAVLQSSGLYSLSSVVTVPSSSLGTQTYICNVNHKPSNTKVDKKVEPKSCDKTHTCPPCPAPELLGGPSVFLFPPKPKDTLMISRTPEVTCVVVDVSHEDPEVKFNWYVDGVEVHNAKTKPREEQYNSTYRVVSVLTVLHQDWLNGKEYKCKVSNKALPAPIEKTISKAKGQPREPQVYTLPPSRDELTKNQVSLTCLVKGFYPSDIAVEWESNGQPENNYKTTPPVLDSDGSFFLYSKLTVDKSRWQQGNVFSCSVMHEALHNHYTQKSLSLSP
light: DVVMTQSPLSLPVTLGQPASISCQSSQNIVHTNGNTYLEWYQQKPGQAPELLIYKVSNRFSGVPDRFSGSGSGTDFTLKISRVEAEDVGVYYCFQGSHIPFTFGQGTKVEIERTVAAPSVFIFPPSDEQLKSGTASVVCLLNNFYPREAKVQWKVDNALQSGNSQESVTEQDSKDSTYSLSSTLTLSKADYEKHKVYACEVTHQGLSSPVTKSFNRGEC
B9: H34/L0 (antibody, human IgG1, kappa, V domains shown)
VH: QVTLKESGPVLVKPTETLTLTCTVSGFSLSKFGVDWVRQAPGKGLEWMGVIWGGGSTNYNSALKSRLTISKDNSKSQVVLTMTNMDPVDTATYYCAGEGSKYGAWFAYWGQGTLVTVSS
VL: DVVMTQSPLSLPVTLGQPASISCRSSQNIVHTNGNTYLEWYQQKPGKAPELLIYKVSNRFSGVPDRFSGSGSGTDFTLKISRVEAEDVGVYYCFQGSHIPFTFGQGTKLEIKR
B10: H32/L11 (antibody, human IgG1, kappa)
heavy: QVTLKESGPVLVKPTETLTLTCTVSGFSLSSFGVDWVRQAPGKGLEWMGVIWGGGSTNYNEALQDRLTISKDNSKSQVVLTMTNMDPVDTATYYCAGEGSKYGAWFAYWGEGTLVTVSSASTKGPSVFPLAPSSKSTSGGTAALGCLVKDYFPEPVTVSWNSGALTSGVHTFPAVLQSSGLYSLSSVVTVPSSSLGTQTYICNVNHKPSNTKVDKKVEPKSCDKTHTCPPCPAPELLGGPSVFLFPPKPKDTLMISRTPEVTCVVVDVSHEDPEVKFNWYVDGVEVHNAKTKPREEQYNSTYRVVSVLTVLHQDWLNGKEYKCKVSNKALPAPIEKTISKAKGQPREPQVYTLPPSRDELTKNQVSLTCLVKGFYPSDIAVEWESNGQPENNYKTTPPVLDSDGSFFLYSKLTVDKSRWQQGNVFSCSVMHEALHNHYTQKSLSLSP
light: DVVMTQSPLSLPVTLGQPASISCQSSQNIVHTNGNTYLEWYQQKPGKAPELLIYKVSNRFSGVPDRFSGSGSGTDFTLKISRVEAEDVGVYYCFQGSHIPFTFGQGTKVEIERTVAAPSVFIFPPSDEQLKSGTASVVCLLNNFYPREAKVQWKVDNALQSGNSQESVTEQDSKDSTYSLSSTLTLSKADYEKHKVYACEVTHQGLSSPVTKSFNRGEC
B11: H36/L11 (antibody, human IgG1, kappa)
heavy: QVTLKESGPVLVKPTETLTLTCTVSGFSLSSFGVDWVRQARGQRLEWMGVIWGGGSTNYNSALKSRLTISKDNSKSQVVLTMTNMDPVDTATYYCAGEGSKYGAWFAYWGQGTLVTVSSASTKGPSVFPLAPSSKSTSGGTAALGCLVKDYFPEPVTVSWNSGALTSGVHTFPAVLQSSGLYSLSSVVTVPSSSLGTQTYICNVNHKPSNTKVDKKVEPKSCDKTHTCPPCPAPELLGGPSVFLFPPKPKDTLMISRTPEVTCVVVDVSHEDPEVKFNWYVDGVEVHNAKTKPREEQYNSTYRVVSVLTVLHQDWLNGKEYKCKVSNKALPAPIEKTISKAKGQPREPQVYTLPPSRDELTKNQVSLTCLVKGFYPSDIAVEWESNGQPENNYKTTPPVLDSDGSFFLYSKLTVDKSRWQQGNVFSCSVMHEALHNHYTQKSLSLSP
light: DVVMTQSPLSLPVTLGQPASISCQSSQNIVHTNGNTYLEWYQQKPGKAPELLIYKVSNRFSGVPDRFSGSGSGTDFTLKISRVEAEDVGVYYCFQGSHIPFTFGQGTKVEIERTVAAPSVFIFPPSDEQLKSGTASVVCLLNNFYPREAKVQWKVDNALQSGNSQESVTEQDSKDSTYSLSSTLTLSKADYEKHKVYACEVTHQGLSSPVTKSFNRGEC
B12: H33/L0 (antibody, human IgG1, kappa)
heavy: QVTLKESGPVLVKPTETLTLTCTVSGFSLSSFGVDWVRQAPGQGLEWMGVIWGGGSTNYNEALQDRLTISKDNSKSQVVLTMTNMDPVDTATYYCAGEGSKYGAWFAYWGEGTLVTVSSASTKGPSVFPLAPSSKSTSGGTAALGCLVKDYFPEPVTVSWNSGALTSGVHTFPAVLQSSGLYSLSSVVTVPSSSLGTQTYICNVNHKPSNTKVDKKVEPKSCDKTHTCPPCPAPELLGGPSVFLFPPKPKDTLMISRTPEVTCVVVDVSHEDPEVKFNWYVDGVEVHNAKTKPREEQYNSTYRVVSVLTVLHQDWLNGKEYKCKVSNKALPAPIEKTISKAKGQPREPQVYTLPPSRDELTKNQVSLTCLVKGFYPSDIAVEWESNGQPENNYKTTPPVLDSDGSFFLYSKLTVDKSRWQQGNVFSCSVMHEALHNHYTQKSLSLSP
light: DVVMTQSPLSLPVTLGQPASISCRSSQNIVHTNGNTYLEWYQQKPGKAPELLIYKVSNRFSGVPDRFSGSGSGTDFTLKISRVEAEDVGVYYCFQGSHIPFTFGQGTKLEIKRTVAAPSVFIFPPSDEQLKSGTASVVCLLNNFYPREAKVQWKVDNALQSGNSQESVTEQDSKDSTYSLSSTLTLSKADYEKHKVYACEVTHQGLSSPVTKSFNRGEC
B13: H36/L31 (antibody, human IgG1, kappa)
heavy: not shown
light: DVVMTQSPLSLPVTLGQPASISCRSSRNIVHTNGNTYLEWYQQKPGKAPKLLIYKVSNRFSGVPDRFSGSGSGTDFTLKISRVEAEDVGVYYCFQGSHIPFTFGQGTKLEIKRTVAAPSVFIFPPSDEQLKSGTASVVCLLNNFYPREAKVQWKVDNALQSGNSQESVTEQDSKDSTYSLSSTLTLSKADYEKHKVYACEVTHQGLSSPVTKSFNRGEC
B14: H33/L12 (antibody, human IgG1, kappa)
heavy: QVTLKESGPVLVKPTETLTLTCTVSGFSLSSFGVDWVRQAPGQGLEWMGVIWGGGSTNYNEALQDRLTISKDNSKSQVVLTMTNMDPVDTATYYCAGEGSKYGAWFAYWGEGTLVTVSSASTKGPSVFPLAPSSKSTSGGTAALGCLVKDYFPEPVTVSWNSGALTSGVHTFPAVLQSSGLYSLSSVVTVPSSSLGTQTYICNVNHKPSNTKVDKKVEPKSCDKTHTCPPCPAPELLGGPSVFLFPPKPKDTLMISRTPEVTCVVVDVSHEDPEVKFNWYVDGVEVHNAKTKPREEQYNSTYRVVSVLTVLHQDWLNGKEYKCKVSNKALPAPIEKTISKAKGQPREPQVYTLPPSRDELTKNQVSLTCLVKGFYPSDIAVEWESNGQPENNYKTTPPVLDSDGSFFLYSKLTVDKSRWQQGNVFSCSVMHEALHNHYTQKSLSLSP
light: DVVMTQSPLSLPVTLGQPASISCQSSQNIVHTNGNTYLEWYQQKPGEAPELLIYKVSNRFSGVPDRFSGSGSGTDFTLKISRVEAEDVGVYYCFQGSHIPFTFGQGTKVEIERTVAAPSVFIFPPSDEQLKSGTASVVCLLNNFYPREAKVQWKVDNALQSGNSQESVTEQDSKDSTYSLSSTLTLSKADYEKHKVYACEVTHQGLSSPVTKSFNRGEC
B15: H36/L10 (antibody, human IgG1, kappa)
heavy: not shown
light: DVVMTQSPLSLPVTLGQPASISCRSSQNIVHTNGNTYLEWYQQKPGKAPELLIYKVSNRFSGVPDRFSGSGSGTDFTLKISRVEAEDVGVYYCFQGSHIPFTFGQGTKVEIERTVAAPSVFIFPPSDEQLKSGTASVVCLLNNFYPREAKVQWKVDNALQSGNSQESVTEQDSKDSTYSLSSTLTLSKADYEKHKVYACEVTHQGLSSPVTKSFNRGEC
B16: H36/L1 (antibody, human IgG1, kappa)
heavy: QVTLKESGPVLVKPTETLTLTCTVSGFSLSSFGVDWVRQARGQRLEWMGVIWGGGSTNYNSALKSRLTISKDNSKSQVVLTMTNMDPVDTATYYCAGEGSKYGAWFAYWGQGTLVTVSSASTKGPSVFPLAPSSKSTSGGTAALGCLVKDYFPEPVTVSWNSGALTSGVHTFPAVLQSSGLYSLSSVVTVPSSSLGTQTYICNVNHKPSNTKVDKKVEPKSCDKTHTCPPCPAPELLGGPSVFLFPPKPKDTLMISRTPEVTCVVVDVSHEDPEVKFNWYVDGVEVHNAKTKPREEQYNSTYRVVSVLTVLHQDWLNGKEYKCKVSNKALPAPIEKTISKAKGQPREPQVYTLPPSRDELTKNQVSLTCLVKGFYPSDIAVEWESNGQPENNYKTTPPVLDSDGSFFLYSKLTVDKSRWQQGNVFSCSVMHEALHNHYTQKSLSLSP
light: DVVMTQSPLSLPVTLGQPASISCQSSQNIVHTNGNTYLEWYQQKPGKAPELLIYKVSNRFSGVPDRFSGSGSGTDFTLKISRVEAEDVGVYYCFQGSHIPFTFGQGTKLEIKRTVAAPSVFIFPPSDEQLKSGTASVVCLLNNFYPREAKVQWKVDNALQSGNSQESVTEQDSKDSTYSLSSTLTLSKADYEKHKVYACEVTHQGLSSPVTKSFNRGEC
B17: H36/L27 (antibody, human IgG1, kappa)
heavy: not shown
light: DVVMTQSPLSLPVTLGQPASISCRSSRNIVHTNGNTYLEWYQQKPGKAPELLIYKVSNRFSGVPDRFSGSGSGTDFTLKISRVEAEDVGVYYCFQGSHIPFTFGQGTKLEIKRTVAAPSVFIFPPSDEQLKSGTASVVCLLNNFYPREAKVQWKVDNALQSGNSQESVTEQDSKDSTYSLSSTLTLSKADYEKHKVYACEVTHQGLSSPVTKSFNRGEC
B18: H33/L13 (antibody, human IgG1, kappa, V domains shown)
VH: QVTLKESGPVLVKPTETLTLTCTVSGFSLSSFGVDWVRQAPGQGLEWMGVIWGGGSTNYNEALQDRLTISKDNSKSQVVLTMTNMDPVDTATYYCAGEGSKYGAWFAYWGEGTLVTVSS
VL: DVVMTQSPLSLPVTLGQPASISCQSSQNIVHTNGNTYLEWYQQKPGQAPELLIYKVSNRFSGVPDRFSGSGSGTDFTLKISRVEAEDVGVYYCFQGSHIPFTFGQGTKVEIER
B19: H36/L28 (antibody, human IgG1, kappa)
heavy: not shown
light: DVVMTQSPLSLPVTLGQPASISCRSSQNIVHTNGNTYLEWYQQKPGKAPKLLIYKVSNRFSGVPDRFSGSGSGTDFTLKISRVEAEDVGVYYCFQGSHIPFTFGQGTKLEIKRTVAAPSVFIFPPSDEQLKSGTASVVCLLNNFYPREAKVQWKVDNALQSGNSQESVTEQDSKDSTYSLSSTLTLSKADYEKHKVYACEVTHQGLSSPVTKSFNRGEC

Biological target: T1, Human recombinant AXL-FND1 (GST-FND1), …
Assay: SPR (Biacore T100): antibody captured on Protein A, GST-FND1 as analyte
Experimental: Kinetic analyses of antigen-antibody reactions of humanized AXL antibodies were carried out using Biacore T100 (BIACORE). rec-Protein A (Zymed) (hereinafter, Protein A) was immobilized onto a sensor chip, various antibodies were bound to it, then an antigen as the analyte was flushed to measure the antibody-antigen interaction. Human recombinant AXL-FND1 (prepared in 2-2; hereinafter referred to as GST-FND1) prepared at various concentrations was used as the antigen. From the sensorgrams obtained through the measurements, kinetic parameters, namely binding rate constant kₐ (1/Ms) and dissociation rate constant kd (1/s), were calculated, and Kd (M) was calculated based on these values. Biacore T100 Evaluation Software (BIACORE) was used to calculate each of the parameters.
The sensor chips were produced by immobilizing approximately 3000 RU of Protein A onto CM5 (BIACORE) by amine coupling. Using the produced sensor chip, kinetic analyses were carried out on the interaction between the Protein A-bound antibodies and GST-FND1. HBS-EP+ was used as the running buffer, and the flow rate was set to 30 μL/min. Each antibody was prepared at 1 μg/mL using the running buffer, and was subjected to binding with Protein A for two minutes. GST-FND1 as the analyte was prepared at 0.5 and 2.0 μg/mL using HBS-EP+. Measurements were carried out by first binding the various humanized AXL antibodies, chimeric AXL antibodies, or mouse AXL antibodies of interest to Protein A, then applying an analyte solution to them for a two-minute interaction, and then switching to HBS-EP+ (BIACORE) for a two-minute measurement of the dissociation phase. After completion of measurement of the dissociation phase, 30 μL of 10 mM glycine-HCl (pH 2.0) was used for washing to regenerate the sensor chip. Such binding, dissociation, and regeneration were defined as one cycle of analysis. All experiments were performed at 25° C.
Affinity evaluation of each of the variants by Biacore was carried out by the method of Example 2.

Binder	Kd [nM]
B1	2.8
B2	1.96
B3	2.64
B4	2.01
B5	1.94
B6	3.06
B7	3.65
B8	2.74
B9	5.94
B10	2.74
B11	2.08
B12	3.04
B13	1.67
B14	3.06
B15	1.87
B16	2.03
B17	1.94
B18	3.02
B19	1.95
